T1: extracellular ActRIIB (SEQ ID NO: 17) fused to the N-terminus of hFc through a GGG linker (human, UniProt Q13705 20-134)
T1 construct: also called ActRIIB-Fc; not shown: hFc
T1 sequence: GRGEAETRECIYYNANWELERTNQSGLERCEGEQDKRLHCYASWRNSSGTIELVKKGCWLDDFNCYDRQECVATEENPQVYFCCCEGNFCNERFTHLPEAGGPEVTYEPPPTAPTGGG

T2: BMP-9, Q9UK05
T2 chain: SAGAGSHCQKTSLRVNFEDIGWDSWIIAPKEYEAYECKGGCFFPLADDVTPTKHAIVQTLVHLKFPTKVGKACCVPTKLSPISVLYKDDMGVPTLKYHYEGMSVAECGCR

B1: extracellular ActRIIB variant ActRIIB 2.01 (SEQ ID NO: 4) fused to the N-terminus of hFc through a GGG linker (Fc fusion)
chain: T1 sequence with T74K, E75K, E76D, N77S, Q79E
notes: also called ActRIIB 2.01 variant; not shown: hFc
B2: extracellular ActRIIB variant ActRIIB 2.05 (SEQ ID NO: 8) fused to the N-terminus of hFc through a GGG linker (Fc fusion)
chain: T1 sequence with E31Y, E33D, Q34K, T74K, E75K, E76D, N77S, Q79E
notes: also called ActRIIB 2.05 variant; not shown: hFc
B3: Activin B (ligand, UniProt P09529 293-407, looked up)
chain: GLECDGRTNLCCRQQFFIDFRLIGWNDWIIAPTGYYGNYCEGSCPAYLAGVPGSASSFHTAVVNQYRMRGLNPGTVNSCCIPTKLSTMSMLYFDDEYNIVKRDVPNMIVEECGCA
B4: Activin A (ligand, UniProt P08476 311-426, looked up)
chain: GLECDGKVNICCKKQFFVSFKDIGWNDWIIAPSGYHANYCEGECPSHIAGTSGSSLSFHSTVINHYRMRGHSPFANLKSCCVPTKLRPMSMLYYDDGQNIIKKDIQNMIVEECGCS
B5: extracellular ActRIIB variant ActRIIB/A (SEQ ID NO: 2) fused to the N-terminus of hFc through a GGG linker (Fc fusion)
chain: GRGEAETRECIFYNANWEKDRTNQSGLEPCYGDQDKRRHCFASWKNSSGTIELVKQGCWLDDINCYDRQECVAKKDSPEVYFCCCEGNFCNERFTHLPEAGGPEVTYEPPPTAPTGGG
notes: also called ActRIIB/A variant; not shown: hFc
B6: BMP-9 (ligand, UniProt Q9UK05 320-429, looked up)
chain: T2 chain
notes: also called bone morphogenetic protein 9
B7: extracellular ActRIIB variant ActRIIB 2.03 (SEQ ID NO: 6) fused to the N-terminus of hFc through a GGG linker (Fc fusion)
chain: T1 sequence with S25T, S47I, S48T, T74K, E75K, E76D, N77S, Q79E
notes: also called ActRIIB 2.03 variant; not shown: hFc
B8: growth differentiation factor 11 (GDF11) (ligand, UniProt O95390 299-407, looked up)
chain: NLGLDCDEHSSESRCCRYPLTVDFEAFGWDWIIAPKRYKANYCSGQCEYMFMQKYPHTHLVQQANPRGSAGPCCTPTKMSPINMLYFNDKQQIIYGKIPGMVVDRCGCS
B9: extracellular ActRIIB variant ActRIIB 2.06 (SEQ ID NO: 9) fused to the N-terminus of hFc through a GGG linker (Fc fusion)
chain: B5 chain with F12Y, K19L, D20E, P29R, Y31E, D33E, R38L, I63F
notes: also called ActRIIB 2.06 variant; not shown: hFc
B10: extracellular ActRIIB variant ActRIIBΔ9 (SEQ ID NO: 3) fused to the N-terminus of hFc through a GGG linker (Fc fusion)
chain: T1 sequence with E20D, F63I, E75K
notes: also called ActRIIBΔ9 variant; not shown: hFc
B11: extracellular ActRIIB variant ActRIIB 2.02 (SEQ ID NO: 5) fused to the N-terminus of hFc through a GGG linker (Fc fusion)
chain: T1 sequence with S25T, S47I, T74K, E75K, E76D, N77S, Q79E
notes: also called ActRIIB 2.02 variant; not shown: hFc
B12: extracellular ActRIIB variant ActRIIB 2.07 (SEQ ID NO: 10) fused to the N-terminus of hFc through a GGG linker (Fc fusion)
chain: B5 chain with P29R, Y31E, D33E, R38L, F41Y, K45R, Q56K, I63F
notes: also called ActRIIB 2.07 variant; not shown: hFc
B13: extracellular ActRIIB variant ActRIIB 2.08 (SEQ ID NO: 11) fused to the N-terminus of hFc through a GGG linker (Fc fusion)
chain: B5 chain with F12Y, K19L, D20E, P29R, F41Y, K45R, Q56K, I63F
notes: also called ActRIIB 2.08 variant; not shown: hFc
B14: extracellular ActRIIB variant ActRIIB 2.04 (SEQ ID NO: 7) fused to the N-terminus of hFc through a GGG linker (Fc fusion)
chain: T1 sequence with R29P, T74K, E75K, E76D, N77S, Q79E
notes: also called ActRIIB 2.04 variant; not shown: hFc
B15: ActRIIB 2.11 (SEQ ID NO: 14)-Fc (Fc fusion, not shown: a dimerising Fc or GST)
chain: GRGEAETRECLYYNANWELERTNQSGVERCEGEKDKRLHCYASWRNSSGSLEIVKKGCWLDDFNCYDRTDCVATKENPQVYFCCCEGNMCNERFTHLPEAGGPEVTYEPPPTAPT
notes: also called ActRIIB 2.11 variant; ActRIIB 2.11-Fc
B16: ActRIIB 2.12 (SEQ ID NO: 15)-Fc (Fc fusion, not shown: a dimerising Fc or GST)
chain: B15 chain with T69D, D70T
notes: also called ActRIIB 2.12 variant; ActRIIB 2.12-Fc
B17: extracellular ActRIIA (SEQ ID NO: 16) fused to the N-terminus of hFc through a GGG linker (Fc fusion)
chain: AILGRSETQECLFFNANWEKDRTNQTGVEPCYGDKDKRRHCFATWKNISGSIEIVKQGCWLDDINCYDRTDCVEKKDSPEVYFCCCEGNMCNEKFSYFPEMEVTQPTSGGG
notes: also called ActRIIA-Fc; not shown: hFc
B18: extracellular ActRIIB variant ActRIIB 2.09 (SEQ ID NO: 12) fused to the N-terminus of hFc through a GGG linker (Fc fusion)
chain: T1 sequence with I11L, L27V, Q34K, T50S, I51L, L53I, Q69T, E70D, F89M
notes: also called ActRIIB 2.09 variant; not shown: hFc
B19: extracellular ActRIIB variant ActRIIB 2.10 (SEQ ID NO: 13) fused to the N-terminus of hFc through a GGG linker (Fc fusion)
chain: T1 sequence with I11L, L27V, Q34K, T50S, I51L, L53I, Q69D, E70T, F89M
notes: also called ActRIIB 2.10 variant; not shown: hFc

The assay “BMP-9” addresses B6. Briefly: SPR (Biacore 3000), ActRII-Fc captured by anti-Fc antibody, ligand in solution. The source says:
(§1) The GE Biacore 3000 was used to measure the kinetics of the interactions between the ActRIIB-Fc variants and the ligands Activin A, Activin B, growth differentiation factor 11 (GDF11), and BMP-9. ActRIIA, ActRIIB, ActRIIB 2.06, ActRIIB 2.11 and ActRIIB 2.12 were recombinant proteins. All other ActRIIB-Fc variants were expressed by transient expression in HEK293 cells and purified from the conditioned media using Protein-A Sepharose chromatography. Flow cells 1-4 were immobilized with anti-human/anti-mouse capture antibodies from GE using the amine coupling kit. The ActRII-Fc proteins were then captured on the chip in flow cells 2-4, with flow cell 1 being left empty as a reference cell to measure and subtract any nonspecific binding. HBS-EP+ buffer from GE Healthcare™ was used as a running buffer. Each ligand was run in a duplicate concentration series at 40 μl/min to avoid mass transport effects. All data was collected on a CM-5 chip except for GDF-11, which used CM-4. The data was analyzed using Scrubber2 by BioLogic™ Software to calculate the KD of each interaction (Table 3).

The assay “Activin A” concerns the target B4. The description is as above.
From the text: as §1

The target of the assay “Activin B” is B3. The assay is described as above.
From the text: as §1

In assay [1] the target is B8. Nature of the assay: SPR (Biacore 3000), ActRII-Fc captured by anti-Fc antibody, ligand in solution, CM-4 chip.
From the text: as §1

Assay [2] addresses T1, extracellular ActRIIB (SEQ ID NO: 17) …. Briefly: SPR (Biacore 3000), ActRII-Fc captured by anti-Fc antibody, ligand in solution.
From the text: as §1

For another assay, the target named is T2, BMP-9, Q9UK05. Described as above. The settings on record: remark: other sources report otherwise.
The target of assay [3] is B17. Described as above.
From the text: as §1

In assay [4] the target is T1, extracellular ActRIIB (SEQ ID NO: 17) …. Nature of the assay: SPR (Biacore 3000), ActRII-Fc captured by anti-Fc antibody, ligand in solution, CM-4 chip.
From the text: as §1

The target of assay [5] is B17. Described as above.
From the text: as §1

Residue numbers refer to the chain shown, from its start.

In the case of B1, the binding result (in the assay with BMP-9; with Activin A; with Activin B; in assay [1]) was “no binding” throughout.

Regarding B2, the binding result (with BMP-9; with Activin A; with Activin B; in [1]) was “no binding” in each case.

As to B3, in assay [2], the affinity, expressed as Kd, was 0.023 nM.

B4 came in with a Kd in assay [2] of 0.063 nM.

In the case of B5, the Kd with BMP-9, Q9UK05 stood at 88 nM. The binding result (with Activin A; with Activin B; in assay [1]) was “no binding” in each case.

Regarding B6, the dissociation constant (Kd) came out at 0.28 nM in assay [2] and 25 nM in assay [3].

For the molecule B7, the binding result (with BMP-9; with Activin A; with Activin B; in assay [1]) was “no binding” in each case.

On to B8, for which the dissociation constant (Kd) in assay [4] was 0.12 nM; in assay [5], 0.081 nM.

In the case of B9, the Kd in the assay with BMP-9 is 0.3 nM; with Activin A, 0.053 nM; in the assay with Activin B, 0.1 nM; in assay [1], 0.027 nM.

As for B10, the Kd with BMP-9 came to 28 nM; with Activin A, 390 nM; with Activin B, 400 nM; in [1], 530 nM.

In the case of B11, the binding result (with BMP-9; with Activin A; with Activin B; in assay [1]) was “no binding” each time.

B12: the binding result (with BMP-9; with Activin A; with Activin B; in [1]) was “no binding” in each case.

For the molecule B13, the binding result (in the assay with BMP-9; in the assay with Activin A; in the assay with Activin B; in assay [1]) was “no binding” in each case.

For B14, the binding result (with BMP-9; with Activin A; with Activin B; in assay [1]) was “no binding” throughout.

Take B15: the Kd came out at 2.7 nM with BMP-9, 0.78 nM with Activin A, 0.37 nM with Activin B and 0.24 nM in [1].

On to B16, for which the Kd with BMP-9 stood at 31 nM; with Activin A it was 0.14 nM; in the assay with Activin B it was 0.16 nM; in [1], 0.13 nM.

For the molecule B17, the dissociation constant (Kd) stood at 1 nM with Activin A and 0.37 nM in the assay with Activin B.

Take B18: the dissociation constant Kd with BMP-9 is 0.44 nM; with Activin A it was 0.1 nM; with Activin B, 0.16 nM.

Turning to B19, the dissociation constant (Kd) was determined as 1.7 nM with BMP-9, 0.45 nM with Activin A and 0.28 nM with Activin B.
